Two molecules from patent US20260265391A1 (BIOTHEUS, published 2026) can be followed below.

By EC50 is commonly meant the concentration that produces a half-maximal response. Lower therefore signals higher potency in that assay.

Substitutions are numbered along the chain they refer to.

Assay [1] has as its target T1, cynomolgus CD40 overexpressed on CHO-S cells (cynomolgus, UniProt G7PG38 21-278).
T1 construct: whole, on cells; also called cynomolgus CD40 expressing CHO cells
Nature of the assay: flow cytometry on CHO-S cells overexpressing cynomolgus CD40. As for the experimental part:
(§1) Specifically, by transfecting the pCHO1.0 vector (Invitrogen) with the human/cynomolgus CD40 cDNA cloned into the MCS and followed by applying pressure selection, CHO-S cells overexpressing human/cynomolgus CD40 were generated. The expanded CD40 overexpressing cells were adjusted to the appropriate cell density and plated on 96-well flow plate. After centrifugation, the cells were incubated with a gradient-diluted sample at 4° C. for 30 minutes. and the cells were then washed twice with PBS, and followed by incubation with a fluorescent secondary antibody diluted to the appropriate concentration, at 4° C. for 30 min. Following two washes with PBS, cells were resuspended in PBS and fluorescent signals were detection on the CytoFlex flow cytometer to calculate the corresponding MFI.

For assay [2], the target named is T2, human CD40 overexpressed on cells (human, UniProt P25942 21-277). Nature of the assay: cell-based or functional assay.
T2 sequence (P25942 21-277 limits assumed): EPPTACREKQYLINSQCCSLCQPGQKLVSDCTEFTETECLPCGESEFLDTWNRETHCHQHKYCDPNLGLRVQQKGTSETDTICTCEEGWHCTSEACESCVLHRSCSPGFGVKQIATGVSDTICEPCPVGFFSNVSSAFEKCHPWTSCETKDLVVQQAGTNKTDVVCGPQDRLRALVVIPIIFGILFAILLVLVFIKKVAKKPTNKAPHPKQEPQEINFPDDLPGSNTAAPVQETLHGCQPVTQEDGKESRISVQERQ
Assay [3] has as its target T2, human CD40 overexpressed on cells. Nature of the assay: cell-based or functional assay. The source holds these as a separate data set.
The target is the same in assay [4]. Put plainly: cell-based or functional assay. This is another data set of the same source.
Assay [5] has the same target. Put plainly: flow cytometry on CHO-S cells overexpressing human CD40. As for the experimental part: as §1
A general note: In flow cytometry, cells or beads pass a laser one at a time.

In assay [6] the target is T3, human CD40-Fc protein (human, UniProt P25942 21-193).
T3 construct: also called human CD40-Fc fusion protein; CD40-Fc antigen; not shown: Fc part
T3 sequence (P25942 21-193 limits assumed): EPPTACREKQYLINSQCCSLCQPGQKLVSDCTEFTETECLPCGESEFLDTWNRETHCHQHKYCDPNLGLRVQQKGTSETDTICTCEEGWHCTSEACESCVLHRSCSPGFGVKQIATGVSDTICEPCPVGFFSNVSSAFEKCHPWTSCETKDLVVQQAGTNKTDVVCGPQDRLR
Nature of the assay: BLI (ForteBio), IgG on AHQ sensor, 100 nM CD40-Fc in solution, bivalent, 1:1 model. As for the experimental part: (§2) The antibody-loaded sensor was further incubated in a high concentration of irrelevant intact antibody solution for 10 minutes to saturate and block the Fc binding sites on the AHQ sensor. The blocked sensor was then incubated with 100 nM CD40-Fc antigen until a plateau was reached, and then the sensor was transferred to the analysis buffer for at least 2 minutes for dissociation rate measurement. Kinetic analysis was performed using a 1:1 binding model.
On the technique in general: BLI is a label-free optical method that tracks binding on a fibre tip over time.

In assay [7] the target is T4, cynomolgus CD40-Fc protein (cynomolgus, UniProt G7PG38 21-193).
T4 construct: not shown: Fc part
The assay is described as above. Here is the method:
as §2

B1: CP870893-IgG2 (antibody, V domains shown)
VH: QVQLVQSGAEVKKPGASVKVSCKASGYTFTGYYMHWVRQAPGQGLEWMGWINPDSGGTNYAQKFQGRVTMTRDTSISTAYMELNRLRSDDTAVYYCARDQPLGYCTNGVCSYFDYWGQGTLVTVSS
VL: DIQMTQSPSSVSASVGDRVTITCRASQGIYSWLAWYQQKPGKAPNLLIYTASTLQSGVPSRFSGSGSGTDFTLTISSLQPEDFATYYCQQANIFPLTFGGGTKVEIKR
notes: Control antibody; also called CP870893-IgG2-wt; CP-870893-G2-WT
As for B1, the concentration giving a half-maximal response (EC50) in assay [1] stood at 7.28 nM; in assay [5], 8 nM. Also, the “EC50 of the CD40-NFkB reporter gene assay (without beads cross-linking)” value in assay [2] turned out to be 131 nM. Besides, the “Signal amplification with bead crosslinking (NFkB-Luc2P reporter, U2OS cells overexpressing human CD40)” value in assay [3] was 14.8. Further, the “Signal amplification without bead crosslinking (NFkB-Luc2P reporter, U2OS cells overexpressing human CD40)” value in assay [3] was 4.7. Further, the “EC50 of the CD40-NFkB reporter gene assay (with beads cross-linking)” value in assay [4] was determined as 181 nM.

B2: ADI-47720 (antibody, human IgG1, kappa, V domains shown)
VH: EVQLVESGGGLVQPGRSLRLSCAASGFTFDDYAMHWVRQAPGKGLEWVSGISWSSGSIGYADSVKGRFTISRDNAKNSLYLQMNSLRAEDTAVYYCAKDPTATTGARGYFDLWGRGTLVTVSS
VL: B1 VL with Y30S, N45K, T50A, T53S, A91R, N92A, I93S, L96P
For B2, the Kd in assay [6] was 9.32 nM; in assay [7], 6.07 nM. The half-maximal effective concentration (EC50) in assay [1] was determined as 5.54 nM; in assay [5] it was 4.82 nM. For the same molecule, in assay [2], the “EC50 of the CD40-NFkB reporter gene assay (without beads cross-linking)” value was roughly 1070 nM. Also, the “Signal amplification with bead crosslinking (NFkB-Luc2P reporter, U2OS cells overexpressing human CD40)” value in assay [3] was determined as 11.5. Also, the “Signal amplification without bead crosslinking (NFkB-Luc2P reporter, U2OS cells overexpressing human CD40)” value in assay [3] is 1.3. Moreover, the “EC50 of the CD40-NFkB reporter gene assay (with beads cross-linking)” value in assay [4] was 304 nM.
